Experimental data taken from the nanobody polyreactivity screen of Harvey et al. (2022).

experiment: yeast display, Sf9 membrane polyspecificity reagent, FACS + sequencing; frameworks hold sequencing errors
Procedure, shortened: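 A synthetic nanobody library was expressed on Saccharomyces cerevisiae BJ5465 by galactose induction for 36–48 hours. The library was stained for 1 hour at 4 °C with 10% biotinylated, detergent-solubilized Sf9 membrane reagent and enriched with streptavidin microbeads before FACS. Low and high (top ~1%) gates were set on anti-HA fluorescence for expression and streptavidin fluorescence for reagent binding, and each polyreactivity label reflects the gate of origin.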

Row | Sequence | polyreactivity (PSR sort gate)
1 | QVQLVESGGGLVQAARSLRLSCAASGRIFNYYAMGWYRLAPGKERELVAAINSGGSTYADSVKGRFTISRDNAKNTVYLPMNSLKPEDTAVYYCAKDGQLQSGRERPSGYDHWGQGTQVTVSS | low polyreactivity
2 | QVQLVESGGGLVQAGARLRLSCAASGSILPTNAMGWYRQAPGKERELVASITYNGGRTSYADSVKWRFTISRDNAKNTVYLQMNSLKPEDTAVYYCAARVWYQGYKSMGYWGQGTQVPVSS | high polyreactivity
3 | QVQLVESGGGLVQAGASLRISCAASGRIFGRNAMGWYRQEPGIEREFVARIRTSGGSTYNADSVKGRFTISRDNAKNTVYLQMNSLKPEDTAVYYCAAAVYTSARGYDYWGQGTQVTLSS | high polyreactivity
4 | QVQLVESGGGLVQAGASLRLICAASGYTSSGYAMGRYRHAPGKERELVAAISADGGSTYYADSVKGRFTISRDNAKNTVYLQMNSLKPEDTAVYYCAKYTYPYTPYSWWYDYWGQGTQVTVSS | low polyreactivity
5 | QVQLVESGGGLVQAGASLRLSCAASGFIFNQYAMGWYRQAPGKERELVAGITWRGGRTYYADSVKGRFTISRDNAKNTVYLQMNSLKPEDTAVYYCAADVAHYNGGEYYYWGQGTQVTVSS | high polyreactivity
6 | QVQLVESGGGLVQAGASLRLSCAASGGIFDLYAMGWYRQAPGKERELVAAITRSGSSTFYADSVKGRFTISRDNAKNTVYLQMNSLKPEDSAVYYCNARYCWYGTYGGDYWGQGTQVTVSS | low polyreactivity
7 | QVQLVESGGGLVQAGASLRLSCAASGIIFYANAMGWYRQAPGTERELVAAITFSGGSTYYADSVKGRFTISRDNAKNTVYLQMNSLKPEDTAVYYCAADKRFIPPHPHPLEFDYWGQGTQVTVSS | low polyreactivity
8 | QVQLVESGGGLVQAGASLRLSCAASGITLYLYDMGWYRQAPGKERELVASITSDGSTDYADSVKGRFTISRDNAKNTVFLQMNSLKPEDTAVYYCIARVTYSWYRFGRSGDDSWGQGSQVTVSS | low polyreactivity
9 | QVQLVESGGGLVQAGASLRLSCAASGRIFHHNVMGWYIQAPGKERELVAAISQSGGSTYYADSVKGRFTISRDNAKNTVYLQMNSLKPEDTAVYYCNDGAAGRRYNYWGQGTQVTVSS | low polyreactivity
10 | QVQLVESGGGLVQAGASLRLSCAASGRTFTQYAMGWYRQAPGKERELVAAISRSGGTTYYADSVKGRFTISRENAKNTVYLQMNSLKPEDTAVYYCAARWWYRYNYDYWGQGTQVTVSS | high polyreactivity
11 | QVQLVESGGGLVQAGASLRLSCAASGRTFYQNGMGWYRQAPGKERELVAVISSGGNTDYADSVKGRFTMSRDNAKNTVYLQMNSLKPEDTAVYYCNADVRPAYTYDYWGQGTQVTVSS | low polyreactivity
12 | QVQLVESGGGLVQAGASLRLSCAASGSIFDPYAMGWYRQAPGKERQLVAAITYSVGGTTYYADSVKGRFTISRDNAKNTVYLQMNSLKPEDTAVYYCAAEWWGTPFDYWGQGTQVTVSS | high polyreactivity
13 | QVQLVESGGGLVQAGASLRLSCAASGSISKSYAMGWYRQAPGKERELVAAISSRGGSTYADSVKGRFTISRDNAKNTVYLQMNSLKPEDTAVYYCAATNYGTFWGGQSERYDYWGQGTQVTVSS | low polyreactivity
14 | QVQLVESGGGLVQAGASLRLSCAASGSNFWFYAMGWYRQAPGKERELVAVISNSGSTYYADSVKGRFTFSRDNAQNTVYLQMNSLKAEDTAVYYCNKDGGGDSYWYDYWGQGTQVTVSS | low polyreactivity
15 | QVQLVESGGGLVQAGASLRLSCAASGSTFYIYAMGWYRQAPGKERELVAGISSGSTYYADSVKGRFTISRDNAKNTVYLQMNSLKPEVTAVYYCAVDSYYFLKDPISYGLYYYWGQGTQVTVSS | low polyreactivity
16 | QVQLVESGGGLVQAGASLRLSCAASGSTQGWYAMGRYRQAPGKERELVAAISWSGSSTYYADSVKGRFTISRDTAKNTVYLQMNSLKPEDTAVYYCATTSSEVGELRICDYWGQGTQVTVSS | low polyreactivity

Row | Sequence | polyreactivity (PSR sort gate)
17 | QVQLVESGGGLVQAGASLRLSCAGSGLIFTTYAMGWYRQAAGKERELVADINSDGSTYYADSVKGRFTISRDNAKNTVYLQMNSLKPEDTAVYYCAKDYVHQYGVYKVWANNYNYWGQGTQVTVSS | low polyreactivity
18 | QVQLVESGGGLVQAGASLRLSCAPSGRIFGPNTMGWSRQAPGKEREVVAAITRRGGSTYYADSVKGRFTISRDNAKNTVYLQMNSLKPEDTAVYYCAAVGQKRSLGFSWGQGTQVTVSS | low polyreactivity
19 | QVQLVESGGGLVQAGASLRLSRAASGLIFYRYAMGLYRPAPGKERELVAAITSGGSTYYADSVKGRFTISRDNAKNTVYLQMNSLKPEDTAVYYCAAFYVPTYYYSPYGYWGQGTQVTVSS | high polyreactivity
20 | QVQLVESGGGLVQAGCILRLSCAASGRIFNYYTMGWYRQAPGKEMELVAAITRTGGNTYYADSVKGRFTISRDNAKNTVYLKMNSLEPEDTAVYDCNVVWLNQREYYYWGQGTHVTVSS | high polyreactivity
21 | QVQLVESGGGLVQAGCRLRLSCAASGRTSPRYTMGWYRQAHGKERELVASITVSDGSTYYADSVKGRFTISRDNAKNTVYLQMNSLKPEDTAVYYCARPGYWYRYISTSKLHYYWGQGTQETVSS | low polyreactivity
22 | QVQLVESGGGLVQAGCSHSLSCAASGSIFWNNAIGSFRQAPVKEREFVAGITGRGGSTYYADSVKGRFTISRDNAKNTVYLQMNSLKPEDTEVYYCATRYLVYRGKYDYWGQGTQVTVSS | high polyreactivity
23 | QVQLVESGGGLVQAGCSLRLRSAASGSIFSGYAMGWYRQAPWKERELDAVISSTGDSTYYADSVKGRFTISRDYAKNTVYLQMNSLKPEDTAVYYCAAYHGPWKWTTRYGYWGQGTQVTVSS | low polyreactivity
24 | QVQLVESGGGLVQAGCSLRLSCAASGFIFDDYDMGWYRQAPGKERELVAAISWSGGSTYYADSVKGRFTISRDNAKNTVYLQMNSLKPEDTAVFYCNADYYRSRYDYWGQGTQVTVSS | high polyreactivity
25 | QVQLVESGGGLVQAGCSLRLSCAASGGTFYANAKGRYRQAPGIVRELVAAITSGGSTNYADSVKGRFTISRDNAKNTVYLEINSLKPEDTAVYYCNASAQRRYWHSYFRRYDYWGQGTQVTVSS | low polyreactivity
26 | QVQLVESGGGLVQAGCSLRLSCAASGITFYGNAMGSYRQAPGKERELVAAISRRGGSTYYADSVKGRFTSSRDNAKNSVYLQMISLKPEDTAVYYCAARYYSWSFRFDYWGQGTQLTVSS | high polyreactivity
27 | QVQLVESGGGLVQAGCSLRLSCAASGRIFGTNDMGWYRQAPGKERELVAAINGSDSSTYYADSVKGRFTISRDNAKNTVYFQMNSLKPEDTAVYYCNADWSGAPERSTDGYDYWGQGTQVTVSS | low polyreactivity
28 | QVQLVESGGGLVQAGCSLRLSCAASGRIFLVNAMGWYRQAPGKERELVAAISYRSGRTYYADSVKGRFTISRDNAKNTVYLQMNSLKPEDTAVYYCAAYTNVADMEYWGQGTQVTVSS | high polyreactivity
29 | QVQLVESGGGLVQAGCSLRLSCAASGRIFNDYAMGWYRQAPGKERELVAGISRRGGSTSYADSVKGRFTISRDNAKNTDYLQMNSQKAEDTAVYYCNADYWYDYYSTEYDYWGQGTQVTVSS | low polyreactivity
30 | QVQLVESGGGLVQAGCSLRLSCAASGRIFWVNAMGWYRQAPGKERELVAVISSGGSTHYADSVKGRFTISRDNAKYTVSLQMNSLKPEDTAGYYCAADRYYVGYYYWGQGTQVTVSS | low polyreactivity
31 | QVQLVESGGGLVQAGCSLRLSCAASGRIFYLYTLGWYRQAPGKERELVAAITRAGRTYYADSVKGRFTISRDNAKNTFYLQMNSLKPEDTGVYYCAAAFLSRVQGYDSWGQGTQVTVSS | high polyreactivity
